Laboratory results published in PMC6082341 (2017).
Ends that are not written are not given here.

B1: TNKS2 ARC5 (domain or fragment)
chain: GAMGSDLLRGDAALLDAAKKGCLARVKKLSSPDNVNCRDTQGRHSTPLHLAAGYNNLEVAEYLLQHGADVNAQDKGGLIPLHNAASYGHVDVAALLIKYNACVNATDKWAFTPLHEAAQKGRTQLCALLLAHGADPTLKNQEGQTPLDLVSADDVSALLTAAMPP

Assays:
[1] = target: T1, MERIT40 (two peptides) (fluorescein or 5(6)-carboxyfluorescein fluorophore; the fluorescein is linked via β-Ala); experiment: FP; MERIT40 I peptide (…)
[2] = target: T1, MERIT40 (two peptides); experiment: FP; MERIT40 II peptide (…)
[3] = target: B1; experiment: FP

Row | Kd [1] [nM] | Kd [2] [nM] | Kd [3] [nM] | Binder
1 | 530 | 3000 |  | B1
2 |  |  | 390 | LPHLQRSPPDGQSFRS (also: fluorescein or 5(6)-carboxyfluorescein linked via β-Ala, site not given here) [3BP2 TBM peptide (WT positive control)]
